Each block holds one substance with its values, some of them ahead of it.
Key:
[1] = target: unmodified nucleosome core particle (human | Xenopus laevis) (UniProt P04908); test: SPR; biotinylated NCPs immobilised (~500 RU) on a streptavidin chip, BIAcore T200; analytes 7.8 to 1,000 nM; 8°C; 25 mM Hepes, 250 mM NaCl, 1 mM DTT, 0.05% Tween-20, pH 8; steady-state 1:1 fit
[2] = target: nucleosome core particle with histone H3 phosphorylated at Thr3 (human | not stated | Xenopus laevis) (UniProt P04908); test: as above
[3] = system: Sumo-Borealin189-206; test: SPR; details: apparent, from normalized response; SPR: 25 mM Hepes pH 8, 250 mM NaCl, 1 mM DTT, 0.05% Tween-20, 8 C; EMSA: 10 mM Tris pH 7.5, 100 mM NaCl, 1 mM MgCl2, 1 mM DTT, 1% glycerol, 0.1 mg/ml BSA, 20 nM
[4] = system: Sumo-Borealin110-206; test: SPR; details: apparent, from normalized response; SPR: 25 mM Hepes pH 8, 250 mM NaCl, 1 mM DTT, 0.05% Tween-20, 8 C; EMSA: 10 mM Tris pH 7.5, 100 mM NaCl, 1 mM MgCl2, 1 mM DTT, 1% glycerol, 0.1 mg/ml BSA, 20 nM
[5] = system: CPC_LM BOR delta-loop; test: SPR; details: apparent, from normalized response; >=20 in review history; SPR: 25 mM Hepes pH 8, 250 mM NaCl, 1 mM DTT, 0.05% Tween-20, 8 C; EMSA: 10 mM Tris pH 7.5, 100 mM NaCl, 1 mM MgCl2, 1 mM DTT, 1% glycerol, 0.1 mg/ml BSA, 20 nM
[6] = system: CPC_LM (Borealin-Survivin-INCENP1-58); test: SPR; details: SPR: 25 mM Hepes pH 8, 250 mM NaCl, 1 mM DTT, 0.05% Tween-20, 8 C, EMSA: 10 mM Tris pH 7.5, 100 mM NaCl, 1 mM MgCl2, 1 mM DTT, 1% glycerol, 0.1 mg/ml BSA, 20 nM
[7] = system: Sumo-Borealin110-188; test: SPR; details: apparent, from normalized response; SPR: 25 mM Hepes pH 8, 250 mM NaCl, 1 mM DTT, 0.05% Tween-20, 8 C; EMSA: 10 mM Tris pH 7.5, 100 mM NaCl, 1 mM MgCl2, 1 mM DTT, 1% glycerol, 0.1 mg/ml BSA, 20 nM
[8] = system: CPC_LM BOR K12/R17/K20E; test: SPR; details: SPR: 25 mM Hepes pH 8, 250 mM NaCl, 1 mM DTT, 0.05% Tween-20, 8 C, EMSA: 10 mM Tris pH 7.5, 100 mM NaCl, 1 mM MgCl2, 1 mM DTT, 1% glycerol, 0.1 mg/ml BSA, 20 nM
[9] = system: CPC_LM delta189-206; test: SPR; details: SPR: 25 mM Hepes pH 8, 250 mM NaCl, 1 mM DTT, 0.05% Tween-20, 8 C; EMSA: 10 mM Tris pH 7.5, 100 mM NaCl, 1 mM MgCl2, 1 mM DTT, 1% glycerol, 0.1 mg/ml BSA, 20 nM
[10] = system: CPC_LM BOR 10-end; test: SPR; details: SPR: 25 mM Hepes pH 8, 250 mM NaCl, 1 mM DTT, 0.05% Tween-20, 8 C; EMSA: 10 mM Tris pH 7.5, 100 mM NaCl, 1 mM MgCl2, 1 mM DTT, 1% glycerol, 0.1 mg/ml BSA, 20 nM
[11] = system: CPC_LM BOR K198/T199E; test: SPR; details: SPR: 25 mM Hepes pH 8, 250 mM NaCl, 1 mM DTT, 0.05% Tween-20, 8 C; EMSA: 10 mM Tris pH 7.5, 100 mM NaCl, 1 mM MgCl2, 1 mM DTT, 1% glycerol, 0.1 mg/ml BSA, 20 nM
[12] = system: CPC_LM delta110-188; test: SPR; details: SPR: 25 mM Hepes pH 8, 250 mM NaCl, 1 mM DTT, 0.05% Tween-20, 8 C; EMSA: 10 mM Tris pH 7.5, 100 mM NaCl, 1 mM MgCl2, 1 mM DTT, 1% glycerol, 0.1 mg/ml BSA, 20 nM
[13] = histone H3 phospho-T3 (native chemical ligation; C110A, residue 32 C)

Substance: CPC localization module (Borealin-Survivin-INCENP 1-58) (from UniProt Q53HL2 1-280; O15392 1-142; Q9NQS7 1-58) (complex)
- Kd [1]: 295 nM
- stoichiometry N (CPC LM dimer per NCP) [1]: 1
- Kd [2]: 103 nM

- Kd [1]: 860 nM
Substance: CPC_LM containing Borealin 10-end (from UniProt Q53HL2 10-280; O15392 1-142; Q9NQS7 1-58) (complex)

- Kd [1]: 528 nM
Substance: CPC_LM containing Borealin K12/R17/K20E (from UniProt Q53HL2 1-280; O15392 1-142; Q9NQS7 1-58) (complex)

- Kd [1]: 260 nM
Substance: CPC_LM containing Borealin lacking the C-terminal half of the loop (residues 189-206) (from UniProt Q53HL2 1-280; O15392 1-142; Q9NQS7 1-58) (complex)

- Kd [1]: 1800 nM
Substance: CPC_LM containing Borealin lacking the N-terminal half of the loop (residues 110-188) (from UniProt Q53HL2 1-280; O15392 1-142; Q9NQS7 1-58) (complex)

Substance: DNA (SPR ligand; presumably 601)
- Kd [3]: 20000 nM
- Kd [4]: 5000 nM
- Kd [5]: 20000 nM
- Kd ([6]; apparent, from normalized response, >=5 in review history): 5000 nM
- Kd [7]: 10000 nM

Substance: H3T3ph NCP (601)
- Kd [8, 13]: 672 nM
- Kd [6, 13]: 103 nM

Substance: unmodified NCP (601)
- Kd [9]: 260 nM
- Kd [8]: 528 nM
- Kd [10]: 860 nM
- Kd [11]: 400 nM
- Kd [12]: 1800 nM
- Kd [6]: 295 nM

— publication PMC6891087
